Results published in article PMC3627919.
One block for each substance: values may come before it.

Tests used:
Nfluc416-WASP (human) = Nfluc416-WASP (human) (UniProt P42768); experiment: split reporter (BiFC, NanoBiT); bimolecular luminescence complementation (split firefly luciferase) in living HEK 293 cells, 24 h after transient cotransfection of the pair (50 ng/well) with pRL-tk; D-luciferin 150 ug/ml; IVIS CCD camera; ratio FL at 600 nm to RL at 500 nm; wild-type pairs also with co-expressed GEF or GAP catalytic domains
Sequence of Nfluc416-WASP (human) (P42768 220-288): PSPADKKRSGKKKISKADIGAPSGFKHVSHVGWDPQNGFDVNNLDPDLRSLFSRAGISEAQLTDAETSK

Nfluc416-PAK = Nfluc416-PAK (UniProt Q13153); experiment: split-luciferase complementation (BiLC) optical imaging in transiently cotransfected 293 cells; details: parent: est. 4.6; read off a plot
Nfluc416-PKN (human) = Nfluc416-PKN (human) (UniProt Q16512); experiment: split reporter (BiFC, NanoBiT); bimolecular luminescence complementation (split firefly luciferase) in living HEK 293 cells, 24 h after transient cotransfection of the pair (50 ng/well) with pRL-tk; D-luciferin 150 ug/ml; IVIS CCD camera; ratio FL at 600 nm to RL at 500 nm; wild-type pairs also with co-expressed GEF or GAP catalytic domains
Sequence of Nfluc416-PKN (human) (Q16512 13-112): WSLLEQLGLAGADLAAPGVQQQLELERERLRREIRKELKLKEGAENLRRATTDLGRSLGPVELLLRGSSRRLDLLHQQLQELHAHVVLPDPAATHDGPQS

reconstituted luminescence (FL/RL), fold over CDC42 F37A (Nfluc416-WASP (human)): 12.7 fold | reconstituted luminescence (FL/RL), fold over CDC42 T17N (Nfluc416-WASP (human)): 6.8 fold | reconstituted luminescence (FL/RL), fold over CDC42 WT (Nfluc416-WASP (human)): 2.9 fold
Substance: CDC42-Cfluc398 (CDC42 G12V) (from UniProt P60953 1-176; P60953 171-191) (natural protein)

response (Nfluc416-PAK): 1.4 FL/RL
Substance: Cfluc398-RacI(WT) (from UniProt P63000) F37A

response (Nfluc416-PAK): 2.1 FL/RL
Substance: Cfluc398-RacI(WT) (from UniProt P63000) T17N

luminescence signal, fold of the active mutant over the wild type (Nfluc416-PKN (human)): 5.15 fold
Substance: Cfluc398-RhoA(G14V) (from UniProt P61586 1-193) (natural protein)
